Laboratory results as given in PMC8967036, “Engineering of phenylalanine dehydrogenase from Thermoactinomyces intermedius for the production of a novel homoglutamate” (PLoS ONE, 2022).
Positions count from the first letter of the chain named. Names may count otherwise.

B1: TiPDH (phenylalanine dehydrogenase) (Thermoactinomyces intermedius) (protein)
chain: MRDVFEMMDRYGHEQVIFCRHPQTGLKAIIALHNTTAGPALGGCRMIPYASTDEALEDVLRLSKGMTYKCSLADVDFGGGKMVIIGDPKKDKSPELFRVIGRFVGGLNGRFYTGTDMGTNPEDFVHAARESKSFAGLPKSYGGKGDTSIPTALGVFHGMRATARFLWGTDQLKGRVVAIQGVGKVGERLLQLLVEVGAYCKIADIDSVRCEQLKEKYGDKVQLVDVNRIHKESCDIFSPCAKGGVVNDDTIDEFRCLAIVGSANNQLVEDRHGALLQKRSICYAPDYLVNAGGLIQVADELEGFHEERVLAKTEAIYDMVLDIFHRAKNENITTCEAADRIVMERLKKLTDIRRILLEDPRNSARR
notes: His-tagged, pET-Duet1, E. coli BL21(DE3), Ni-NTA purified
B2: TiPDH (phenylalanine dehydrogenase) (Thermoactinomyces intermedius; A135R) (protein)
chain: B1 chain with A135R
notes: as for B1

Experiments:
purified protein [1] = substrate: O=C(O)C(=O)Cc1ccccc1; test: purified protein; type: biochemical, Thermoactinomyces intermedius; conditions: reductive amination, Tris-NH4Cl pH 8.0, 1 mM NADH, 37°C (general assay)
purified protein [2] = substrate: O=C(O)CCCC(=O)C(=O)O; test: purified protein; type: biochemical, Thermoactinomyces intermedius; conditions: reductive amination, Tris-NH4Cl pH 8.0, 1 mM NADH, 37°C (general assay)
[3] = mutant called only 'mutated TiPDH' at the number, A135R by b37-b38 (G114R and double mutant inactive)

Row | Protein | Km (purified protein [1]; natural substrate) [µM] | kcat (purified protein [1]; natural substrate) [min⁻¹] | Km (purified protein [2]) [µM] | kcat (purified protein [2]) [min⁻¹] | Km (purified protein [1]) [µM] | kcat (purified protein [1]) [min⁻¹] | Km (purified protein [2]; [3]) [µM] | kcat (purified protein [2]; [3]) [min⁻¹]
1 | B1 | 0.66 | 22.29 | 1.771 | 0.308 |  |  |  | 
2 | B2 |  |  |  |  | 1.2 | 25.84 | 7.518 | 1.37
